Tested on: Escherichia coli TOP10
Assay: shrunken log2 fold change of peptide-encoding DNA abundance (4.5 h post-induction vs induction); higher = less antimicrobial activity (less host growth inhibition)
Conditions: time post-induction: 4.5 h; library: site-saturation at positions 5, 18, 19, 20
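Further: peptides expressed intracellularly from a pBAD plasmid library in pooled LB shake-flask culture, induced with 0.3% L-arabinose, DNA abundance read by NGS, three biological replicates, DESeq2 with apeglm shrinkage.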

Point of comparison: RRIRMRPPRLPRPRPRPCNKPRP, “shrunken log2 fold change” value -0.372. Against it:
- RRIRFRPPRLPRPRPRPSKTPRP — higher, 0.0514
- RRIRNRPPRLPRPRPRPRSVPRP — higher, 0.258
- RRIRTRPPRLPRPRPRPIQHPRP — within 0.2 log units, -0.403
- RRIRIRPPRLPRPRPRPIDMPRP — higher, -0.0681
- RRIRHRPPRLPRPRPRPYQLPRP — higher, -0.0135
- RRIRYRPPRLPRPRPRPQACPRP — higher, 0.00187
- RRIRSRPPRLPRPRPRPDYAPRP — higher, -0.0222
- RRIRWRPPRLPRPRPRPALHPRP — higher, 0.277
- RRIRMRPPRLPRPRPRPKRTPRP — higher, 3.45
- RRIRWRPPRLPRPRPRPTPIPRP — higher, 0.419
- RRIRYRPPRLPRPRPRPKYLPRP — higher, 0.00379
- RRIRVRPPRLPRPRPRPNTWPRP — within 0.2 log units, -0.197
- RRIRMRPPRLPRPRPRPECRPRP — higher, 2.38
- RRIRPRPPRLPRPRPRPFWSPRP — higher, -0.143
- RRIRTRPPRLPRPRPRPFQLPRP — higher, -0.138
- RRIRHRPPRLPRPRPRPDVWPRP — higher, 0.15
- RRIRVRPPRLPRPRPRPPYKPRP — within 0.2 log units, -0.371
- RRIRKRPPRLPRPRPRPFNTPRP — higher, -0.0902
- RRIRERPPRLPRPRPRPAYPPRP — within 0.2 log units, -0.403
- RRIRDRPPRLPRPRPRPIMEPRP — higher, 0.594
- RRIRWRPPRLPRPRPRPDMDPRP — higher, 0.0441
- RRIRQRPPRLPRPRPRPKGIPRP — higher, 0.0655
- RRIRHRPPRLPRPRPRPVAAPRP — higher, 0.202
- RRIRCRPPRLPRPRPRPMSQPRP — higher, -0.0148
- RRIRTRPPRLPRPRPRPFHFPRP — within 0.2 log units, -0.303
- RRIRCRPPRLPRPRPRPKNQPRP — higher, -0.112
- RRIRCRPPRLPRPRPRPVYTPRP — within 0.2 log units, -0.222
- RRIRARPPRLPRPRPRPQNWPRP — higher, 0.315
- RRIRRRPPRLPRPRPRPERGPRP — higher, 0.798
- RRIRDRPPRLPRPRPRPANLPRP — higher, -0.0687
- RRIRKRPPRLPRPRPRPRICPRP — higher, 0.0539
- RRIRPRPPRLPRPRPRPASHPRP — higher, 0.0473
- RRIRPRPPRLPRPRPRPKYTPRP — within 0.2 log units, -0.414
- RRIRKRPPRLPRPRPRPWPGPRP — higher, 0.342
- RRIRERPPRLPRPRPRPRRRPRP — higher, 0.261
- RRIRARPPRLPRPRPRPTWEPRP — higher, 1.02
- RRIRRRPPRLPRPRPRPSINPRP — higher, -0.13
- RRIRVRPPRLPRPRPRPYVTPRP — higher, 0.0974
- RRIRARPPRLPRPRPRPIPMPRP — higher, 0.0374
- RRIRQRPPRLPRPRPRPNKNPRP — within 0.2 log units, -0.335
- RRIRHRPPRLPRPRPRPNNKPRP — lower, -0.75
- RRIRKRPPRLPRPRPRPREDPRP — higher, 0.346
- RRIRWRPPRLPRPRPRPQYKPRP — lower, -0.696
- RRIRMRPPRLPRPRPRPTRTPRP — higher, 2.22
- RRIRQRPPRLPRPRPRPYDAPRP — higher, 0.0382
- RRIRSRPPRLPRPRPRPLFQPRP — higher, -0.126
- RRIRLRPPRLPRPRPRPDCTPRP — higher, 0.0972
- RRIRARPPRLPRPRPRPEAAPRP — higher, 1.78
- RRIRARPPRLPRPRPRPFRKPRP — higher, 0.00339
- RRIRGRPPRLPRPRPRPVEKPRP — higher, 0.198
- RRIRRRPPRLPRPRPRPGYWPRP — higher, 0.535
- RRIRFRPPRLPRPRPRPSHGPRP — within 0.2 log units, -0.391
- RRIRFRPPRLPRPRPRPFWMPRP — within 0.2 log units, -0.254
- RRIRARPPRLPRPRPRPMQVPRP — higher, 0.277
- RRIRYRPPRLPRPRPRPVNKPRP — higher, -0.0557
- RRIRQRPPRLPRPRPRPNHRPRP — higher, -0.0657
- RRIRKRPPRLPRPRPRPQHQPRP — higher, 0.122
- RRIRGRPPRLPRPRPRPKRHPRP — higher, 1
- RRIRWRPPRLPRPRPRPTPSPRP — higher, 0.564
- RRIRCRPPRLPRPRPRPLWDPRP — within 0.2 log units, -0.386
- RRIRGRPPRLPRPRPRPLRDPRP — higher, 1.3
- RRIRSRPPRLPRPRPRPWGCPRP — higher, 0.032
- RRIRERPPRLPRPRPRPQLQPRP — higher, -0.0648
- RRIRTRPPRLPRPRPRPARAPRP — higher, 0.786
- RRIRARPPRLPRPRPRPYYAPRP — within 0.2 log units, -0.501
- RRIRWRPPRLPRPRPRPDHYPRP — higher, -0.023
- RRIRQRPPRLPRPRPRPPSPPRP — higher, 0.426
- RRIRRRPPRLPRPRPRPIMWPRP — higher, 0.121
- RRIRPRPPRLPRPRPRPSVCPRP — within 0.2 log units, -0.273
- RRIRCRPPRLPRPRPRPAKCPRP — higher, -0.101
- RRIRYRPPRLPRPRPRPYLPPRP — within 0.2 log units, -0.174
- RRIRERPPRLPRPRPRPHYRPRP — higher, 0.05
- RRIRHRPPRLPRPRPRPSAYPRP — within 0.2 log units, -0.562
- RRIRSRPPRLPRPRPRPKEYPRP — higher, 0.167
- RRIRSRPPRLPRPRPRPWMNPRP — within 0.2 log units, -0.267
- RRIRKRPPRLPRPRPRPCYNPRP — within 0.2 log units, -0.428
- RRIRLRPPRLPRPRPRPRTDPRP — higher, -0.0417
- RRIRARPPRLPRPRPRPQMTPRP — higher, 0.0889
- RRIRSRPPRLPRPRPRPEVVPRP — higher, 0.471
- RRIRVRPPRLPRPRPRPTATPRP — higher, 0.272
- RRIRFRPPRLPRPRPRPATYPRP — within 0.2 log units, -0.191
- RRIRVRPPRLPRPRPRPANVPRP — lower, -0.597
- RRIRHRPPRLPRPRPRPMGWPRP — higher, 0.317
- RRIRHRPPRLPRPRPRPPSKPRP — higher, -0.122
- RRIRVRPPRLPRPRPRPQQGPRP — higher, 0.403
- RRIRGRPPRLPRPRPRPCRKPRP — higher, -0.079
- RRIRPRPPRLPRPRPRPFANPRP — higher, -0.0686
- RRIRTRPPRLPRPRPRPENGPRP — higher, 0.0885
- RRIRWRPPRLPRPRPRPTHDPRP — higher, 0.196
- RRIRMRPPRLPRPRPRPDHDPRP — higher, -0.0765
- RRIRQRPPRLPRPRPRPSLKPRP — within 0.2 log units, -0.235
- RRIRTRPPRLPRPRPRPVGSPRP — within 0.2 log units, -0.243
- RRIRNRPPRLPRPRPRPPPRPRP — higher, 1.47
- RRIRARPPRLPRPRPRPRYVPRP — within 0.2 log units, -0.25
- RRIRERPPRLPRPRPRPQTAPRP — higher, -0.0922
- RRIRWRPPRLPRPRPRPRQCPRP — higher, 0.137
- RRIRHRPPRLPRPRPRPGGWPRP — higher, 1.47
- RRIRYRPPRLPRPRPRPCLFPRP — lower, -0.931
- RRIRSRPPRLPRPRPRPGICPRP — higher, 0.137
- RRIRWRPPRLPRPRPRPSIPPRP — higher, 0.46
- RRIRMRPPRLPRPRPRPSNAPRP — higher, 0.405
- RRIRIRPPRLPRPRPRPCGCPRP — within 0.2 log units, -0.248
- RRIRDRPPRLPRPRPRPDIKPRP — higher, 0.543
- RRIRMRPPRLPRPRPRPGKTPRP — higher, 0.769
- RRIRTRPPRLPRPRPRPFGDPRP — higher, 0.0755
- RRIRQRPPRLPRPRPRPYMPPRP — higher, -0.0463
- RRIRWRPPRLPRPRPRPWCHPRP — within 0.2 log units, -0.422
- RRIRVRPPRLPRPRPRPSDTPRP — within 0.2 log units, -0.54
- RRIRNRPPRLPRPRPRPYIWPRP — lower, -0.588
- RRIRMRPPRLPRPRPRPHTTPRP — higher, -0.0908
- RRIRSRPPRLPRPRPRPWACPRP — higher, 0.0189
- RRIRKRPPRLPRPRPRPQGWPRP — higher, 0.116
- RRIRHRPPRLPRPRPRPELMPRP — higher, -0.141
- RRIRERPPRLPRPRPRPIYEPRP — within 0.2 log units, -0.236
- RRIRYRPPRLPRPRPRPTHLPRP — higher, -0.0864
- RRIRGRPPRLPRPRPRPLYGPRP — higher, -0.105
- RRIRYRPPRLPRPRPRPLGAPRP — higher, -0.103
- RRIRIRPPRLPRPRPRPGIVPRP — within 0.2 log units, -0.399
- RRIRARPPRLPRPRPRPRFKPRP — higher, 0.122
- RRIRGRPPRLPRPRPRPFFCPRP — higher, 0.471
- RRIRNRPPRLPRPRPRPSYDPRP — within 0.2 log units, -0.452
- RRIRPRPPRLPRPRPRPTMGPRP — higher, 0.0476
- RRIRWRPPRLPRPRPRPMTYPRP — within 0.2 log units, -0.289
- RRIRCRPPRLPRPRPRPITVPRP — within 0.2 log units, -0.222
- RRIRMRPPRLPRPRPRPKTDPRP — higher, 1.32
- RRIRQRPPRLPRPRPRPFHMPRP — higher, -0.0421
- RRIRRRPPRLPRPRPRPWNGPRP — within 0.2 log units, -0.346
- RRIRRRPPRLPRPRPRPQREPRP — higher, 0.153
- RRIRTRPPRLPRPRPRPWNPPRP — higher, 0.0296
- RRIRARPPRLPRPRPRPCHDPRP — higher, -0.00479
- RRIRCRPPRLPRPRPRPIKEPRP — higher, -0.0741
- RRIRCRPPRLPRPRPRPPPKPRP — higher, 1.51
- RRIRMRPPRLPRPRPRPVKKPRP — higher, 0.0481
- RRIRMRPPRLPRPRPRPVWHPRP — higher, 0.137
- RRIRVRPPRLPRPRPRPWITPRP — lower, -1.08
- RRIRWRPPRLPRPRPRPRTCPRP — higher, -0.045
- RRIRARPPRLPRPRPRPGLEPRP — higher, 0.629
- RRIRGRPPRLPRPRPRPGDRPRP — higher, 1
- RRIRQRPPRLPRPRPRPQIHPRP — within 0.2 log units, -0.246
- RRIRMRPPRLPRPRPRPNWHPRP — higher, -0.0297
- RRIRVRPPRLPRPRPRPKQPPRP — higher, 0.11
- RRIRYRPPRLPRPRPRPQKSPRP — within 0.2 log units, -0.208
- RRIRFRPPRLPRPRPRPHMTPRP — within 0.2 log units, -0.186
- RRIRGRPPRLPRPRPRPEFGPRP — higher, 0.797
- RRIRCRPPRLPRPRPRPGQMPRP — higher, -0.147
- RRIRKRPPRLPRPRPRPKGWPRP — higher, 0.61
- RRIRRRPPRLPRPRPRPCCGPRP — higher, 0.0161
- RRIRWRPPRLPRPRPRPTICPRP — higher, -0.106
- RRIRWRPPRLPRPRPRPVQWPRP — higher, 0.251
